Results published in US10618965 (dated 2020).
Residue numbers refer to the chain shown, from its start.

T1: human FcgRIIa(R) (human)
T1 chain: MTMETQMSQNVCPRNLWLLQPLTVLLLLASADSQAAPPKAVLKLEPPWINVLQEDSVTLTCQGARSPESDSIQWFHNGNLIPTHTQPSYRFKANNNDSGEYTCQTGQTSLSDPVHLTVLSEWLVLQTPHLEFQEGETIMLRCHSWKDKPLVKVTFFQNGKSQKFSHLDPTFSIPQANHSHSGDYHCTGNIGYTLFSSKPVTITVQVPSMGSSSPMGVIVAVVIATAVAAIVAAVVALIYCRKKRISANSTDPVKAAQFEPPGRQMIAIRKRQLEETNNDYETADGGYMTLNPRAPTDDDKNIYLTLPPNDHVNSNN

T2: human FcgRIIb (human)
T2 chain: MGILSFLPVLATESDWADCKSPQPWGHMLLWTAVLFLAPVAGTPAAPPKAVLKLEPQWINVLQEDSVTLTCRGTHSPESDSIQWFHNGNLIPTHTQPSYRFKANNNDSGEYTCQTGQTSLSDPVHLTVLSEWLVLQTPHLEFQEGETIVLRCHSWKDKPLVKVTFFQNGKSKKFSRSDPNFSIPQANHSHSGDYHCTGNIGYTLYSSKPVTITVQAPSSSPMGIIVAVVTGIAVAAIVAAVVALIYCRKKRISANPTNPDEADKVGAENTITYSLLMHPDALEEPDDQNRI

B1: IL6R-BP147 (antibody)
chain 1: QVQLQESGPGLVKPSETLSLTCAVSGHSISHDHAWSWVRQPPGEGLEWIGFISYSGITNYNPSLQGRVTISRDNSKNTLYLQMNSLRAEDTAVYYCARSLARTTAMDYWGEGTLVTVSSASTKGPSVFPLAPSSKSTSGGTAALGCLVKDYFPEPVTVSWNSGALTSGVHTFPAVLQSSGLYSLSSVVTVPSSSLGTQTYICNVNHKPSNTKVDKKVEPKSCDKTHTCPPCPAPEYLGDDSVFLFPPKPKDTLMISRTPEVTCVVVDVSHEDPEVKFNWYVDGVEVHNAKTKPREEQYNSTYRVVSVLTVLHQDWLNGKEYKCKVSNAALPKPIEKTISKAKGQPREPQVYTLPPSRDELTKNQVSLTCLVKGFYPSDIAVEWESNGQPENNYKTTPPVLDSDGSFFLYSKLTVDKSRWQQGNVFSCSVMHEALHNHYTQESLSLSP
chain 2: DIQMTQSPSSLSASVGDRVTITCRASQDISSYLNWYQQKPGKAPKLLIYYTSRLHSGVPSRFSGSGSGTDFTFTISSLQPEDIATYYCQQGNTLPYTFGQGTKVEIK
B2: IL6R-BP082 (antibody)
chain 1: B1 chain 1 with E235D, Y236L, D239G, A328K
chain 2: B1 chain 2
B3: IL6R-BP143 (antibody)
chain 1: B1 chain 1 with D239G, K332A
chain 2: B1 chain 2
B4: IL6R-BP181 (antibody)
chain 1: B1 chain 1 with E235D, Y236L, D239G, P273G
chain 2: B1 chain 2
B5: IL6R-BP176 (antibody)
chain 1: B1 chain 1 with E235D, Y236L, D239G, A328D
chain 2: B1 chain 2
B6: IL6R-BP088 (antibody)
chain 1: B1 chain 1 with Y236L
chain 2: B1 chain 2
B7: IL6R-BP129 (antibody)
chain 1: B1 chain 1 with E235D, Y236L, D239G, Y298D, A328K
chain 2: B1 chain 2
B8: IL6R-BP177 (antibody)
chain 1: B1 chain 1 with E235D, P273G, A328D
chain 2: B1 chain 2
B9: IL6R-BP148 (antibody)
chain 1: B1 chain 1 with E235D
chain 2: B1 chain 2
B10: IL6R-BP130 (antibody)
chain 1: B1 chain 1 with E235D, Y236L, D239G, V325M, A328K
chain 2: B1 chain 2
B11: IL6R-BP151 (antibody)
chain 1: B1 chain 1 with E235D
chain 2: B1 chain 2
B12: IL6R-BP145 (antibody)
chain 1: B1 chain 1 with A328K, K332A
chain 2: B1 chain 2
B13: IL6R-BP086 (antibody)
chain 1: B1 chain 1 with Y236L, D239G
chain 2: B1 chain 2

Target: T1, human FcgRIIa(R)
Experiment: SPR
With B1 the Kd was 890 nM. For B2, the Kd was 1200 nM. With B3 the Kd was 5700 nM. In the case of B4, the Kd is reported as 3200 nM. Work on B5 yielded a Kd of 6900 nM. B6 gave a Kd of 2900 nM. B7 gave a Kd of 1500 nM. In the case of B8, the Kd is reported as 710 nM. With B9 the Kd was 1100 nM. In the case of B10, the Kd is reported as 5300 nM. B11 showed a Kd of 670 nM. For B12, the Kd was 3400 nM. For B13, the Kd was 9700 nM.

Target: T2, human FcgRIIb
Experiment: SPR
With B1 the Kd was 66 nM. B2 was tested, and the Kd was 540 nM. Binder B3 has a Kd of 570 nM. With B4 the Kd was 160 nM. With B5 the Kd was 360 nM. For B6, the Kd was 220 nM. B7 was tested, and the Kd was 520 nM. For B8, the Kd was 52 nM. For B9, the Kd was 75 nM. B10 showed a Kd of 300 nM. Binder B11 has a Kd of 40 nM. B12 was tested, and the Kd was 340 nM. B13 gave a Kd of 570 nM.

These binders were tested against human FcgRIa (human) (assay: SPR).
Chain of human FcgRIa (human) (chain, as listed by the source): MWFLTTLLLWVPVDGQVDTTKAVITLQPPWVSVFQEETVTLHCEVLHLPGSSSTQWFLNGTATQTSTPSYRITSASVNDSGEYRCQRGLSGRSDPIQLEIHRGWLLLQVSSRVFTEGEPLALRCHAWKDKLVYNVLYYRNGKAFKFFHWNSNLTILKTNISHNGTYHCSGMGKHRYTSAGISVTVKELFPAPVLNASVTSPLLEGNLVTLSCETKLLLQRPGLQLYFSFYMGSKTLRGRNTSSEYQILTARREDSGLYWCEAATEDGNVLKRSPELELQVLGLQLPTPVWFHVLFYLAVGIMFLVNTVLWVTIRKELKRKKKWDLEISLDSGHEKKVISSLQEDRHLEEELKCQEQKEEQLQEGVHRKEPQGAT
With B1 the Kd was 140 nM. Binder B2 has a Kd of 1 nM. B3 gave a Kd of 1600 nM. B4 was tested, and the Kd was 7.5 nM. Work on B5 yielded a Kd of 7.3 nM. Work on B6 yielded a Kd of 300 nM. B7 showed a Kd of 25 nM. For B8, the Kd was 33 nM. B9 was tested, and the Kd was 89 nM. Work on B10 yielded a Kd of 1.9 nM. With B11 the Kd was 84 nM. Binder B12 has a Kd of 120 nM. B13 was tested, and the Kd was 27 nM.
